Patent US20180155451A1 (published 2018)

T1: FcγRIIb extracellular domain with C-terminal His tag (human, UniProt P31994 43-217)
T1 construct: extracellular domain; also called 2b; FcgRIIb; not shown: His tag at the C terminus
T1 sequence (looked up): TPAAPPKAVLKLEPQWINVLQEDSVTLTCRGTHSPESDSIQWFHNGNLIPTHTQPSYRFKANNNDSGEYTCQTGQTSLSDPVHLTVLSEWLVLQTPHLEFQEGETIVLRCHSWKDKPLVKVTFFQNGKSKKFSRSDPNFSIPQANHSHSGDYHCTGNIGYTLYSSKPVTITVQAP

T2: FcγRIIb (human, UniProt P31994 43-217)
T2 construct: extracellular domain; also called 2b; FcgRIIb
T2 sequence (looked up): T1 sequence (looked up)

B1: GpH7-A5/GpH7-B3 variant V266_01G/GpL16-k0 (antibody, human IgG1, kappa)
heavy 1: not shown
heavy 2: not shown
light: DIVMTQSPLSLPVTPGEPASISCQASESLVHSNRNTYLHWYLQKPGQSPQLLIYKVSNRFSGVPDRFSGSGSGTDFTLKISRVEAEDVGVYYCSQNTHVPPTFGQGTKVEIERTVAAPSVFIFPPSDEQLKSGTASVVCLLNNFYPREAKVQWKVDNALQSGNSQESVTEQDSKDSTYSLSSTLTLSKADYEKHKVYACEVTHQGLSSPVTKSFNRGEC
notes: He Ab: mutation in the GpH7-B3 H chain only; also called He Ab
B2: GpH7-A5/GpH7-B3 variant A327_07I/GpL16-k0 (antibody, human IgG1, kappa)
heavy 1: not shown
heavy 2: not shown
light: B1 light
notes: as for B1
B3: GpH7-A5/GpH7-B3 variant D265_11K/GpL16-k0 (antibody, human IgG1, kappa)
heavy 1: not shown
heavy 2: not shown
light: B1 light
notes: as for B1
B4: GpH7-A5/GpH7-B3 variant I332_04F/GpL16-k0 (antibody, human IgG1, kappa)
heavy 1: not shown
heavy 2: not shown
light: B1 light
notes: as for B1
B5: GpH7-A5/GpH7-B3 variant A327_10E/GpL16-k0 (antibody, human IgG1, kappa)
heavy 1: not shown
heavy 2: not shown
light: B1 light
notes: as for B1
B6: GpH7-A5/GpH7-B3 variant A327_09D/GpL16-k0 (antibody, human IgG1, kappa)
heavy 1: not shown
heavy 2: not shown
light: B1 light
notes: as for B1
B7: GpH7-A5/GpH7-B3 variant D265_16H/GpL16-k0 (antibody, human IgG1, kappa)
heavy 1: not shown
heavy 2: not shown
light: B1 light
notes: as for B1
B8: GpH7-A5/GpH7-B3 variant L328_06M/GpL16-k0 (antibody, human IgG1, kappa)
heavy 1: not shown
heavy 2: not shown
light: B1 light
notes: as for B1
B9: GpH7-A5/GpH7-B3 variant L328_13S/GpL16-k0 (antibody, human IgG1, kappa)
heavy 1: not shown
heavy 2: not shown
light: B1 light
notes: as for B1
B10: GpH7-A5/GpH7-B3 variant K334_12R/GpL16-k0 (antibody, human IgG1, kappa)
heavy 1: not shown
heavy 2: not shown
light: B1 light
notes: as for B1
B11: GpH7-A5/GpH7-B3 variant L328_09D/GpL16-k0 (antibody, human IgG1, kappa)
heavy 1: not shown
heavy 2: not shown
light: B1 light
notes: as for B1
B12: GpH7-A5/GpH7-B3 variant A327_18N/GpL16-k0 (antibody, human IgG1, kappa)
heavy 1: not shown
heavy 2: not shown
light: B1 light
notes: as for B1
B13: GpH7-A5/GpH7-B3 variant D265_10E/GpL16-k0 (antibody, human IgG1, kappa)
heavy 1: not shown
heavy 2: not shown
light: B1 light
notes: as for B1
B14: GpH7-A5/GpH7-B3 variant D265_06M/GpL16-k0 (antibody, human IgG1, kappa)
heavy 1: not shown
heavy 2: not shown
light: B1 light
notes: as for B1
B15: GpH7-A5/GpH7-B3 variant D265_14T/GpL16-k0 (antibody, human IgG1, kappa)
heavy 1: not shown
heavy 2: not shown
light: B1 light
notes: as for B1
B16: GpH7-A5/GpH7-B3 variant L328_07I/GpL16-k0 (antibody, human IgG1, kappa)
heavy 1: not shown
heavy 2: not shown
light: B1 light
notes: as for B1
B17: GpH7-A5/GpH7-B3 variant D265_08L/GpL16-k0 (antibody, human IgG1, kappa)
heavy 1: not shown
heavy 2: not shown
light: B1 light
notes: as for B1
B18: GpH7-A5/GpH7-B3 variant L328_03V/GpL16-k0 (antibody, human IgG1, kappa)
heavy 1: not shown
heavy 2: not shown
light: B1 light
notes: as for B1
B19: GpH7-A5/GpH7-B3 variant L328_04F/GpL16-k0 (antibody, human IgG1, kappa)
heavy 1: not shown
heavy 2: not shown
light: B1 light
notes: as for B1
B20: GpH7-A5/GpH7-B3 variant D265_15Y/GpL16-k0 (antibody, human IgG1, kappa)
heavy 1: not shown
heavy 2: not shown
light: B1 light
notes: as for B1
B21: GpH7-A5/GpH7-B3 variant D265_13S/GpL16-k0 (antibody, human IgG1, kappa)
heavy 1: not shown
heavy 2: not shown
light: B1 light
notes: as for B1
B22: GpH7-A5/GpH7-B3 variant D265_04F/GpL16-k0 (antibody, human IgG1, kappa)
heavy 1: not shown
heavy 2: not shown
light: B1 light
notes: as for B1
B23: GpH7-A5/GpH7-B3 variant L328_10E/GpL16-k0 (antibody, human IgG1, kappa)
heavy 1: not shown
heavy 2: not shown
light: B1 light
notes: as for B1
B24: GpH7-A5/GpH7-B3 variant D265_20W/GpL16-k0 (antibody, human IgG1, kappa)
heavy 1: not shown
heavy 2: not shown
light: B1 light
notes: as for B1
B25: GpH7-A5/GpH7-B3 variant A330_01G/GpL16-k0 (antibody, human IgG1, kappa)
heavy 1: not shown
heavy 2: not shown
light: B1 light
notes: as for B1
B26: GpH7-A5/GpH7-B3 variant D265_12R/GpL16-k0 (antibody, human IgG1, kappa)
heavy 1: not shown
heavy 2: not shown
light: B1 light
notes: as for B1
B27: GpH7-A5/GpH7-B3 variant D265_03V/GpL16-k0 (antibody, human IgG1, kappa)
heavy 1: not shown
heavy 2: not shown
light: B1 light
notes: as for B1
B28: GpH7-A5/GpH7-B3 variant D265_18N/GpL16-k0 (antibody, human IgG1, kappa)
heavy 1: not shown
heavy 2: not shown
light: B1 light
notes: as for B1
B29: GpH7-A5/GpH7-B3 variant L328_02A/GpL16-k0 (antibody, human IgG1, kappa)
heavy 1: not shown
heavy 2: not shown
light: B1 light
notes: as for B1
B30: GpH7-A5/GpH7-B3 variant D265_07I/GpL16-k0 (antibody, human IgG1, kappa)
heavy 1: not shown
heavy 2: not shown
light: B1 light
notes: as for B1
B31: GpH7-A5/GpH7-B3 variant D265_19Q/GpL16-k0 (antibody, human IgG1, kappa)
heavy 1: not shown
heavy 2: not shown
light: B1 light
notes: as for B1
B32: GpH7-A5/GpH7-B3 variant D265_02A/GpL16-k0 (antibody, human IgG1, kappa)
heavy 1: not shown
heavy 2: not shown
light: B1 light
notes: as for B1
B33: GpH7-A5/GpH7-B3 variant V266_20W/GpL16-k0 (antibody, human IgG1, kappa)
heavy 1: not shown
heavy 2: not shown
light: B1 light
notes: as for B1
B34: GpH7-A5/GpH7-B3 variant S337_08L/GpL16-k0 (antibody, human IgG1, kappa)
heavy 1: not shown
heavy 2: not shown
light: B1 light
notes: also called He Ab S337_08L
B35: GpH7-A5/GpH7-B3 variant S337_18N/GpL16-k0 (antibody, human IgG1, kappa)
heavy 1: not shown
heavy 2: not shown
light: B1 light
notes: also called He Ab S337_18N
B36: GpH7-A5/GpH7-B3 variant T335_20W/GpL16-k0 (antibody, human IgG1, kappa)
heavy 1: not shown
heavy 2: not shown
light: B1 light
notes: also called He Ab T335_20W
B37: GpH7-A5/GpH7-B3 variant T335_07I/GpL16-k0 (antibody, human IgG1, kappa)
heavy 1: not shown
heavy 2: not shown
light: B1 light
notes: also called He Ab T335_07I
B38: GpH7-A5/GpH7-B3 variant T335_13S/GpL16-k0 (antibody, human IgG1, kappa)
heavy 1: not shown
heavy 2: not shown
light: B1 light
notes: also called He Ab T335_13S
B39: GpH7-A5/GpH7-B3 variant S337_16H/GpL16-k0 (antibody, human IgG1, kappa)
heavy 1: not shown
heavy 2: not shown
light: B1 light
notes: also called He Ab S337_16H
B40: GpH7-A5/GpH7-B3 variant Y296_20W/GpL16-k0 (antibody, human IgG1, kappa)
heavy 1: not shown
heavy 2: not shown
light: B1 light
notes: also called He Ab Y296_20W
B41: GpH7-A5/GpH7-B3 variant S337_15Y/GpL16-k0 (antibody, human IgG1, kappa)
heavy 1: not shown
heavy 2: not shown
light: B1 light
notes: also called He Ab S337_15Y
B42: GpH7-A5/GpH7-B3 variant T335_18N/GpL16-k0 (antibody, human IgG1, kappa)
heavy 1: not shown
heavy 2: not shown
light: B1 light
notes: also called He Ab T335_18N
B43: GpH7-A5/GpH7-B3 variant T335_19Q/GpL16-k0 (antibody, human IgG1, kappa)
heavy 1: not shown
heavy 2: not shown
light: B1 light
notes: also called He Ab T335_19Q
B44: GpH7-A5/GpH7-B3 variant S337_20W/GpL16-k0 (antibody, human IgG1, kappa)
heavy 1: not shown
heavy 2: not shown
light: B1 light
notes: also called He Ab S337_20W
B45: GpH7-A5/GpH7-B3 variant T335_15Y/GpL16-k0 (antibody, human IgG1, kappa)
heavy 1: not shown
heavy 2: not shown
light: B1 light
notes: also called He Ab T335_15Y
B46: GpH7-A5/GpH7-B3 variant V266_06M/GpL16-k0 (antibody, human IgG1, kappa)
heavy 1: not shown
heavy 2: not shown
light: B1 light
notes: also called He Ab V266_06M
B47: GpH7-A5/GpH7-B3 variant T335_10E/GpL16-k0 (antibody, human IgG1, kappa)
heavy 1: not shown
heavy 2: not shown
light: B1 light
notes: also called He Ab T335_10E
B48: GpH7-A5/GpH7-B3 variant T335_16H/GpL16-k0 (antibody, human IgG1, kappa)
heavy 1: not shown
heavy 2: not shown
light: B1 light
notes: also called He Ab T335_16H

Each binder was assayed against T3, FcγRIIIa extracellular domain with C-terminal His tag (human, UniProt P08637 17-208) (assay: SPR (Biacore), relative binding, GpH7-A5/GpH7-B3/GpL16-k0 = 100).
T3 construct: extracellular domain; also called 3a; FcgRIIIa; not shown: His tag at the C terminus
Description: (§1) Analysis of interaction between objective antibody and the FcγR was carried out using Biacore T100 (GE Healthcare). HBS-EP+ (GE Healthcare) was used as the running buffer, and the measurement temperature was set to 25° C. Chips produced by immobilizing the antigen peptide by the amine coupling method to a Series S Sencor Chip CM5 (GE Healthcare), or alternatively, chips produced by allowing preliminarily biotinylated antigen peptides to interact with and immobilize onto a Series S Sensor Chip SA (certified) (GE Healthcare) were used. Antibodies of interest were captured onto an antigen peptide-immobilized chip, and allowed to interact to each FcγR diluted with running buffer. To regenerate and repeatedly use the chip, the antibodies captured on the chip were washed off by reacting 10 mM glycine-HCl, pH 1.5.
(§2) The FcγR-binding activity of each antibody was assessed primarily using as an indicator the FcγR-binding activity and dissociation constant for FcγR.

T3 sequence (P08637 17-208): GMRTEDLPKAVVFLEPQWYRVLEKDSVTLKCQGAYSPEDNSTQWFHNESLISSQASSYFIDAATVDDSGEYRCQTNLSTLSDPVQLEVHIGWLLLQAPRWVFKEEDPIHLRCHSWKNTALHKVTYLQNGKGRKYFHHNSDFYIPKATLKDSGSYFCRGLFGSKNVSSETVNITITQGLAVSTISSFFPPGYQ

He/Con_3a | Binder
24 % of control | B1
42.4 % of control | B2
2.5 % of control | B3
97.6 % of control | B4
68.6 % of control | B5
83.7 % of control | B6
13.6 % of control | B7
78.6 % of control | B8
71.7 % of control | B9
90.8 % of control | B10
47.8 % of control | B11
61.1 % of control | B12
20.1 % of control | B13
2.6 % of control | B14
4.3 % of control | B15
84 % of control | B16
0 % of control | B17
78.7 % of control | B18
79.3 % of control | B19
-1.7 % of control | B20
3.9 % of control | B21
0 % of control | B22
53.4 % of control | B23
-0.5 % of control | B24
89.1 % of control | B25
3.2 % of control | B26
0.6 % of control | B27
4.6 % of control | B28
79.1 % of control | B29
-0.8 % of control | B30

These binders were tested against T1, FcγRIIb extracellular domain with … in the same assay as above.
Description: as §1, §2

He/Con_2b | Binder
51.5 % of control | B1
127 % of control | B2
14.9 % of control | B3
104 % of control | B4
140 % of control | B5
33.4 % of control | B31
172 % of control | B6
38.3 % of control | B7
142 % of control | B8
19.9 % of control | B32
149 % of control | B9
111 % of control | B10
199 % of control | B11
71.9 % of control | B33
113 % of control | B12
38.2 % of control | B13
10 % of control | B14

He/Con_2b | Binder
16 % of control | B15
160 % of control | B16
4.6 % of control | B17
126 % of control | B18
219 % of control | B19
0.6 % of control | B20
11.3 % of control | B21
3.2 % of control | B22
172 % of control | B23
1.1 % of control | B24
104 % of control | B25
15 % of control | B26
3.2 % of control | B27
6.1 % of control | B28
144 % of control | B29
1.3 % of control | B30

What follows are binders tested against T2, FcγRIIb (assay: SPR (Biacore), binding relative to GpH7-A5/GpH7-B3/GpL16-k0 = 100).
Description: as §1, §2

He/Con_2b | Binder
100 % of control | B34
103 % of control | B35
104 % of control | B36
106 % of control | B37
102 % of control | B38
105 % of control | B39
103 % of control | B40
100 % of control | B41
102 % of control | B42
100 % of control | B43
109 % of control | B44
108 % of control | B45
251 % of control | B46
108 % of control | B47
102 % of control | B48
